# Data reported in publication PMC7015237, “mTORC1 signalling is not essential for the maintenance of muscle mass and function in adult sedentary mice” (Journal of Cachexia, Sarcopenia and Muscle, 2019).
# B1: eukaryotic translation initiation factor 4E-binding protein 1 (natural protein, UniProt Q60876 1-117, looked up)
# chain: MSAGSSCSQTPSRAIPTRRVALGDGVQLPPGDYSTTPGGTLFSTTPGGTRIIYDRKFLMECRNSPVAKTPPKDLPAIPGVTSPTSDEPPMQASQSQLPSSPEDKRAGGEESQFEMDI
# notes: Phosphorylation of 4E-BP1 (S65) is lower in iRAmKO muscle than in controls; the phosphorylation state of the pulled-down protein was not determined; also called 4E-BP1; source: endogenous, mouse gastrocnemius muscle lysate (3 month iRAmKO and control mice)
# Biological target: T1, eukaryotic translation initiation factor 4E (mouse (endogenous in gastrocnemius …, UniProt P63073 1-217))
# T1 construct: eukaryotic translation initiation factor 4E (eIF4E), mouse, endogenous in gastrocnemius muscle; also called eIF4E; source: endogenous, mouse gastrocnemius muscle lysate (3 month iRAmKO and control mice)
# T1 sequence (P63073 whole entry): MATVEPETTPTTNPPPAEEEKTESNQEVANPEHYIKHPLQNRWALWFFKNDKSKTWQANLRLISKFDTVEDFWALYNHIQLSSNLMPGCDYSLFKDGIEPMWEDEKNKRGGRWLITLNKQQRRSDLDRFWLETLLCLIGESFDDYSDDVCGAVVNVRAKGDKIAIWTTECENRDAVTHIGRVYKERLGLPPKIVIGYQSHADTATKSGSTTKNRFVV
# Assay: pull-down; m7GTP-agarose beads on 400 ug gastrocnemius lysate of 3 month iRAmKO (raptor-depleted) and control mice, overnight at 4°C; lysis buffer 20 mM Hepes pH 7.4, 50 mM KCl, 0.2 mM EDTA, 0.5% Triton X-100; western blot for eIF4E and 4E-BP1; 4E-BP1 normalised to eIF4E
# Conditions: partners not purified
binder,measurement,value
B1,"fold change of the ratio of 4E-BP1 to eIF4E in the m7GTP pulldown, iRAmKO against control mice",2.5 fold
